Substrate: CCCCCCCCCCCC(=O)O
Test: initial rates of substrate consumption by GC, Hill fit
Type: biochemical, Alicyclobacillus acidocaldarius
Settings: excess H2O2, pH 7.4, 28 °C, Hill n 2.1 ± 0.8
Text: initial rates of substrate consumption by GC, Hill fit on CYP-Aa162

B1: CYP-Aa162 (Alicyclobacillus acidocaldarius LAA1) (protein)
chain: MNQCIPRDRTFDSSLALIKEGYLFIKNRVDQYQSDIFEARLLLENVVCMHGAEAAKLFYNTELFQRQGALPKRVQKTLFGENAIQTLDGTAHLHRKQLFLSLLTPDQEKSLATLATTQWRECAKVWENADRVVLFEEAKRMLCRIACQWTGVPLDESEVSKRADDFGAMVDAFGAVGPRHWKGRRARARAEAWLRQMIDEIRIGLRSVDEHTPLHVVAFWRDVNGNLLDAQMVAIELINLLRPIVAISTFITFSALALHEHPTWRDRLKARNEADIEMFVQEVRRYYPFAPFLGARVKKDFVWRGYEFKRGTLVLLDVYGTHHDARLWDSPNEFRPERFMRKTVGPFDLIPQGGGDSHTGHRCPGEGATIEIMKASVDFLVNQIDFEVPAQDLSYRLDVMPTLPKSGFVLTHVHRKFIASPTIATPNGSEALPSEV
For B1, the K0.5 was 93.1 ± 37.7 µM, the kcat was 0.768 ± 0.285 s⁻¹ and the kcat/Km was 8330 M⁻¹ s⁻¹.
